Tests used:
[1] = biological target: T1, human VEGF-A residues 27-191 of Accession #AAV38412 (human, UniProt P15692 27-191); assay: BIAcore SPR
T1 construct: range 27-191
Method: (§1) The binding kinetics and affinity of the antibodies for VEGF (human VEGF-A residues 27-191 of Accession #AAV38412) was determined by using a BIAcore T200 surface plasmon resonance system (BIAcore, GE Healthcare, Piscataway, N.J.). Coupling running buffer was HBS-EP+ running buffer (10 mM HEPES, 150 mM sodium chloride, 3 mM EDTA 0.05% P-20, pH 7.4); assay running buffer was HBS-EP+ with 300 mM sodium chloride and 0.1 mg/mL BSA (Sigma A7906). Polyclonal goat anti-human Fc (Thermo Scientific prod#31125) was first immobilized to the biosensor surface in 10 mM sodium acetate, pH 4.5 using standard BIAcore amine coupling reagents (N-ethyl-N′-dimethylamino-propylcarbodiimide, EDC; N-hydroxysuccinimide, NHS; and ethanolamine HCl, pH 8.5). For binding kinetics assay a series of cycles were performed, each cycle consisted of 1) mAb capture, 2) Ag or buffer injection, 3) dissociation phase and 4) regeneration. Briefly, anti-VEGF antibodies were captured on parallel surfaces at a low flow rate of 10 μL/min. Capture levels were kept low to minimize avidity due to the dimeric nature of VEGF. No capture of the antibody was made on the reference surface to serve for primary referencing and as a negative control. Subsequently, VEGF or buffer only was injected to all flow cells at a flow rate of 80 μL/min for three minutes to monitor association followed by a 20-minute flow of assay rinning buffer at a flow rate of 80 μL/min to monitor dissociation. […] At the end of each cycle the surface was regenerated with 10 mM glycine, pH 1.5 at a flow rate of 60 μL/min in pulses of 60 and 10 sec. Binding data were fit to the 1:1 Langmuir model with mass transport term included using Biacore T200 Evaluation Software to determine the binding constants.

[2] = biological target: T2, unlabeled human VEGF (ELISA coat) (human, UniProt P15692-4 27-191, limits assumed); assay: ELISA 1 hr, EC50 WT/EC50 mutant
Method: (§2) To detect identified variants binding to antigen, ELISA plates (Nunc-Immuno MaxiSorp plates, Nalge Nunc, Rochester, N.Y.) were coated overnight at 4° C. with unlabeled human VEGF at 1 μg/mL in 0.2 M sodium carbonate-bicarbonate buffer (pH 9.4, Pierce, Rockford, Ill.). The plates were then blocked with SuperBlock Blocking Buffer (Pierce, Rockford, Ill.) for 30 min and washed with Washing Buffer (PBS containing 0.1% Tween 20). All the washing steps were performed for three times. […] The plates were washed and 100 μL of goat anti-human kappa HRP-conjugated antibody (Southern Biotech, Birmingham, Ala.) diluted at 1:1000 in ELISA buffer was added to each well. After 30 minutes of incubation, plates were washed and bound antibodies were detected by addition of TMB 1 Component HRP Microwell substrate (BioFx #TMBW-1000-01). The reaction was terminated by addition of 100 μL/well of 650 nM Stop Reagent for TMB Microwell substrate and the absorbance was measured at 650 nm using a VERSAmax microplate reader (Molecular Devices, Sunnyvale, Calif.). Data were fitted using nonlinear regression with the software […]

[3] = biological target: T1, human VEGF-A residues 27-191 of …; assay: BIAcore SPR, KD WT/KD mutant
Method: as §1

[4] = biological target: T2, unlabeled human VEGF (ELISA coat); assay: ELISA overnight, EC50 WT/EC50 mutant
Method: as §2

T2 sequence (P15692 other isoform, or with tags, fused parts or gaps limits assumed): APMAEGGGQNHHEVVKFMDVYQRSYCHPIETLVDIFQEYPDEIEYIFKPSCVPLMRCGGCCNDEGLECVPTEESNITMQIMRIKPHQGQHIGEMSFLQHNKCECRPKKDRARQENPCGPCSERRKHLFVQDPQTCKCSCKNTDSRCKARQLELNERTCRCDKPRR
T1 sequence (P15692 other isoform, or with tags, fused parts or gaps limits assumed): as above

Binder	Kd [1]	koff [1]	kon [1]	ELISA 1hr binding [2]	affinity improvement [3]	ELISA o/n binding [4]
T30 K (anti-VEGF IgG) (antibody, V domains shown, copies: 2 + 2) VH: EVQLVESGGGLVQPGGSLRLSCAASGYTFKNYGMNWVRQAPGKGLEWVGWINTYTGEPTYAADFKRRFTFSLDTSKSTAYLQMNSLRAEDTAVYYCAKYPHYYGSSHWYFDVWGQGTLVTVSS VL: DIQMTQSPSSLSASVGDRVTITCSASQDISNYLNWYQQKPGKAPKVLIYFTSSLHSGVPSRFSGSGSGTDFTLTISSLQPEDFATYYCQQYSTVPWTFGQGTKVEIK	920 pM	8.53e-05 s⁻¹	92800 M⁻¹ s⁻¹	2.5 fold	0.5 fold	3.1 fold
H97 A (anti-VEGF IgG) (antibody, V domains shown, copies: 2 + 2) VH: EVQLVESGGGLVQPGGSLRLSCAASGYTFTNYGMNWVRQAPGKGLEWVGWINTYTGEPTYAADFKRRFTFSLDTSKSTAYLQMNSLRAEDTAVYYCAKYPAYYGSSHWYFDVWGQGTLVTVSS VL: DIQMTQSPSSLSASVGDRVTITCSASQDISNYLNWYQQKPGKAPKVLIYFTSSLHSGVPSRFSGSGSGTDFTLTISSLQPEDFATYYCQQYSTVPWTFGQGTKVEIK	2200 pM	0.000451 s⁻¹	205000 M⁻¹ s⁻¹	4 fold	0.2 fold	3.4 fold
S100a Q (anti-VEGF IgG) (antibody, V domains shown, copies: 2 + 2) VH: EVQLVESGGGLVQPGGSLRLSCAASGYTFTNYGMNWVRQAPGKGLEWVGWINTYTGEPTYAADFKRRFTFSLDTSKSTAYLQMNSLRAEDTAVYYCAKYPHYYGQSHWYFDVWGQGTLVTVSS VL: DIQMTQSPSSLSASVGDRVTITCSASQDISNYLNWYQQKPGKAPKVLIYFTSSLHSGVPSRFSGSGSGTDFTLTISSLQPEDFATYYCQQYSTVPWTFGQGTKVEIK	451 pM	6.04e-05 s⁻¹	134000 M⁻¹ s⁻¹	3.7 fold	1.1 fold	3.6 fold
T28 Y (anti-VEGF IgG) (antibody, V domains shown, copies: 2 + 2) VH: EVQLVESGGGLVQPGGSLRLSCAASGYYFTNYGMNWVRQAPGKGLEWVGWINTYTGEPTYAADFKRRFTFSLDTSKSTAYLQMNSLRAEDTAVYYCAKYPHYYGSSHWYFDVWGQGTLVTVSS VL: DIQMTQSPSSLSASVGDRVTITCSASQDISNYLNWYQQKPGKAPKVLIYFTSSLHSGVPSRFSGSGSGTDFTLTISSLQPEDFATYYCQQYSTVPWTFGQGTKVEIK	520 pM	6.32e-05 s⁻¹	122000 M⁻¹ s⁻¹	5.2 fold	1 fold	3.4 fold
S100a G (anti-VEGF IgG) (antibody, V domains shown, copies: 2 + 2) VH: EVQLVESGGGLVQPGGSLRLSCAASGYTFTNYGMNWVRQAPGKGLEWVGWINTYTGEPTYAADFKRRFTFSLDTSKSTAYLQMNSLRAEDTAVYYCAKYPHYYGGSHWYFDVWGQGTLVTVSS VL: DIQMTQSPSSLSASVGDRVTITCSASQDISNYLNWYQQKPGKAPKVLIYFTSSLHSGVPSRFSGSGSGTDFTLTISSLQPEDFATYYCQQYSTVPWTFGQGTKVEIK	602 pM	0.000133 s⁻¹	221000 M⁻¹ s⁻¹	3.7 fold	0.8 fold	3.7 fold
T28 G (anti-VEGF IgG) (antibody, V domains shown, copies: 2 + 2) VH: EVQLVESGGGLVQPGGSLRLSCAASGYGFTNYGMNWVRQAPGKGLEWVGWINTYTGEPTYAADFKRRFTFSLDTSKSTAYLQMNSLRAEDTAVYYCAKYPHYYGSSHWYFDVWGQGTLVTVSS VL: DIQMTQSPSSLSASVGDRVTITCSASQDISNYLNWYQQKPGKAPKVLIYFTSSLHSGVPSRFSGSGSGTDFTLTISSLQPEDFATYYCQQYSTVPWTFGQGTKVEIK	374 pM	4.97e-05 s⁻¹	133000 M⁻¹ s⁻¹	5.4 fold	1.3 fold	3.9 fold
T28 R (anti-VEGF IgG) (antibody, V domains shown, copies: 2 + 2) VH: EVQLVESGGGLVQPGGSLRLSCAASGYRFTNYGMNWVRQAPGKGLEWVGWINTYTGEPTYAADFKRRFTFSLDTSKSTAYLQMNSLRAEDTAVYYCAKYPHYYGSSHWYFDVWGQGTLVTVSS VL: DIQMTQSPSSLSASVGDRVTITCSASQDISNYLNWYQQKPGKAPKVLIYFTSSLHSGVPSRFSGSGSGTDFTLTISSLQPEDFATYYCQQYSTVPWTFGQGTKVEIK	675 pM	6.44e-05 s⁻¹	95400 M⁻¹ s⁻¹	1.4 fold	0.6 fold	1.8 fold

Binders with a lower Kd [1], results first:

Kd [1]	koff [1]	kon [1]	ELISA 1hr binding [2]	affinity improvement [3]	ELISA o/n binding [4]	Binder
337 pM	7.68e-05 s⁻¹	228000 M⁻¹ s⁻¹	2.2 fold	1.3 fold	2.1 fold	S100a A (anti-VEGF IgG) (antibody, V domains shown, copies: 2 + 2) VH: EVQLVESGGGLVQPGGSLRLSCAASGYTFTNYGMNWVRQAPGKGLEWVGWINTYTGEPTYAADFKRRFTFSLDTSKSTAYLQMNSLRAEDTAVYYCAKYPHYYGASHWYFDVWGQGTLVTVSS VL: DIQMTQSPSSLSASVGDRVTITCSASQDISNYLNWYQQKPGKAPKVLIYFTSSLHSGVPSRFSGSGSGTDFTLTISSLQPEDFATYYCQQYSTVPWTFGQGTKVEIK
278 pM	6.05e-05 s⁻¹	218000 M⁻¹ s⁻¹	1.1 fold	1.8 fold	1.1 fold	N31 L (anti-VEGF IgG) (antibody, V domains shown, copies: 2 + 2) VH: EVQLVESGGGLVQPGGSLRLSCAASGYTFTLYGMNWVRQAPGKGLEWVGWINTYTGEPTYAADFKRRFTFSLDTSKSTAYLQMNSLRAEDTAVYYCAKYPHYYGSSHWYFDVWGQGTLVTVSS VL: DIQMTQSPSSLSASVGDRVTITCSASQDISNYLNWYQQKPGKAPKVLIYFTSSLHSGVPSRFSGSGSGTDFTLTISSLQPEDFATYYCQQYSTVPWTFGQGTKVEIK
197 pM	4.15e-05 s⁻¹	211000 M⁻¹ s⁻¹	2.3 fold	2.2 fold	2.7 fold	S100a T (anti-VEGF IgG) (antibody, V domains shown, copies: 2 + 2) VH: EVQLVESGGGLVQPGGSLRLSCAASGYTFTNYGMNWVRQAPGKGLEWVGWINTYTGEPTYAADFKRRFTFSLDTSKSTAYLQMNSLRAEDTAVYYCAKYPHYYGTSHWYFDVWGQGTLVTVSS VL: DIQMTQSPSSLSASVGDRVTITCSASQDISNYLNWYQQKPGKAPKVLIYFTSSLHSGVPSRFSGSGSGTDFTLTISSLQPEDFATYYCQQYSTVPWTFGQGTKVEIK
172 pM	3.17e-05 s⁻¹	184000 M⁻¹ s⁻¹	2.2 fold	2.5 fold	1.9 fold	N31 H (anti-VEGF IgG) (antibody, V domains shown, copies: 2 + 2) VH: EVQLVESGGGLVQPGGSLRLSCAASGYTFTHYGMNWVRQAPGKGLEWVGWINTYTGEPTYAADFKRRFTFSLDTSKSTAYLQMNSLRAEDTAVYYCAKYPHYYGSSHWYFDVWGQGTLVTVSS VL: DIQMTQSPSSLSASVGDRVTITCSASQDISNYLNWYQQKPGKAPKVLIYFTSSLHSGVPSRFSGSGSGTDFTLTISSLQPEDFATYYCQQYSTVPWTFGQGTKVEIK
164 pM	3.42e-05 s⁻¹	209000 M⁻¹ s⁻¹	2.1 fold	3.1 fold	1.3 fold	N31 W (anti-VEGF IgG) (antibody, V domains shown, copies: 2 + 2) VH: EVQLVESGGGLVQPGGSLRLSCAASGYTFTWYGMNWVRQAPGKGLEWVGWINTYTGEPTYAADFKRRFTFSLDTSKSTAYLQMNSLRAEDTAVYYCAKYPHYYGSSHWYFDVWGQGTLVTVSS VL: DIQMTQSPSSLSASVGDRVTITCSASQDISNYLNWYQQKPGKAPKVLIYFTSSLHSGVPSRFSGSGSGTDFTLTISSLQPEDFATYYCQQYSTVPWTFGQGTKVEIK
77 pM	1.77e-05 s⁻¹	230000 M⁻¹ s⁻¹	3 fold	6.6 fold	1.5 fold	N31 Y (anti-VEGF IgG) (antibody, V domains shown, copies: 2 + 2) VH: EVQLVESGGGLVQPGGSLRLSCAASGYTFTYYGMNWVRQAPGKGLEWVGWINTYTGEPTYAADFKRRFTFSLDTSKSTAYLQMNSLRAEDTAVYYCAKYPHYYGSSHWYFDVWGQGTLVTVSS VL: DIQMTQSPSSLSASVGDRVTITCSASQDISNYLNWYQQKPGKAPKVLIYFTSSLHSGVPSRFSGSGSGTDFTLTISSLQPEDFATYYCQQYSTVPWTFGQGTKVEIK
